This is an account of results in PMC5225424.

The test has as its target GmMYB176-YFP (soybean (Glycine max)). Put plainly: FRET or BRET; FRET by acceptor bleaching, CFP as donor and YFP as acceptor, co-expressed in N. benthamiana leaf epidermal cells; average of multiple samples (n > 15). On the technique in general: Bioluminescence resonance energy transfer reports proximity on the nanometre scale.

As to “GmCYP1-CFP (from UniProt Q8W171 1-172) (natural protein)”, the FRET efficiency is 23.8%.
